Target: full length Brn-3b GST fusion protein (UniProt Q63934)
Assay: pull-down

UniProt Q63934, sequence (Q63934 whole entry, the tested form may be a part): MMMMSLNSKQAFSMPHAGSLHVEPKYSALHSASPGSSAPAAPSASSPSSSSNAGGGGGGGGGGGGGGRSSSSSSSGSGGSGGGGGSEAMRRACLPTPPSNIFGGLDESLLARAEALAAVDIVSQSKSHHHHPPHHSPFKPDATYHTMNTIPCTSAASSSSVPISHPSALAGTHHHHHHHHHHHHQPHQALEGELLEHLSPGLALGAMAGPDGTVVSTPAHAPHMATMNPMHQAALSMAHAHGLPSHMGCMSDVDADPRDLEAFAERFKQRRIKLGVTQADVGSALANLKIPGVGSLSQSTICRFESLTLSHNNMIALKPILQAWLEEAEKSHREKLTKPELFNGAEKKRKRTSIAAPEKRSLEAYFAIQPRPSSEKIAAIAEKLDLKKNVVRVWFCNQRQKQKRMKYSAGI

percent of input retained: 15.2 % of input
Substance: in vitro translated estrogen receptor (from UniProt P03372 1-595)

Source: PMC1751550
